Reference: patent US11542537B2, “High-purity steviol glycosides” (PureCircle Sdn Bhd, priority 2012, dated 2023)

Columns and labels:
Format in all cases: biochemical
[1] = LCMS of Rubusoside conversion products with UGTSL, UGTSL2, UGTLB; conditions: UGTSL2 2 hrs, UGTLB 5 hrs, UGTSL 45 hrs
Protocol: (§1) Conversion of stevioside with UGTSL and UGTSL2 was conducted in similar manner to Example 28, and the conversion of rubusoside with UGTSL and UGTSL2 was conducted similarly to Example 29. Conversions of rubusoside and stevioside with UGTLB was conducted similarly to Example 32.
(§2) The reaction mixtures were analyzed by LCMS to determine all reaction products.

[2] = Activity for Rubusoside to Rebaudioside E conversion (UGTSL, UGTSL2, UGTLB lysates); conditions: based on initial concentration of Rubusoside; reaction time 45 h. (UGTSL), 2 h. (UGTSL2)
Protocol: Activity tests were performed at 3 mL scale with 600 μL of lysate for the transformation of Rubusoside using 0.5 mM of substrate, 2.5 mM of UDP-Glucose and 3 mM MgCl2 in 50 mM Sodium Phosphate buffer at pH 7.2. The HPLC assay was performed as described in EXAMPLE 20.
Activity tests were performed at 3 mL scale with 600 μL of lysate for the transformation of Rubusoside using 0.5 mM of substrate, 2.5 mM of UDP-Glucose and 3 mM MgCl2 in 50 mM Sodium Phosphate buffer at pH 7.2. Samples were taken and analyzed by HPLC. The corresponding chromatogram is depicted in FIG. 65.

[3] = LCMS of Stevioside conversion products with UGTSL, UGTSL2, UGTLB; conditions: UGTSL2 2 hrs, UGTLB 2 hrs, UGTSL 22 hrs
Protocol: as §1, §2

B1: UGTSL2: Solanum lycopersicum UDP-glucosyltransferase GI_460410132, SEQ ID 9, E. coli lysate (protein, listed as Escherichia coli)
chain: MATNLRVLMFPWLAYGHISPFLNIAKQLADRGFLIYLCSTRINLESIIKKIPEKYADSIHLIELQLPELPELPPHYHTTNGLPPHLNPTLHKALKMSKPNFSRILQNLKPDLLIYDVLQPWAEHVANEQNIPAGKLLTSCAAVFSYFFSFRKNPGVEFPFPAIHLPEVEKVKIREILAKEPEEGGRLDEGNKQMMLMCTSRTIEAKYIDYCTELCNWKVVPVGPPFQDLITNDADNKELIDWLGTKHENSTVFVSFGSEYFLSKEDMEEVAFALELSNVNFIWVARFPKGEERNLEDALPKGFLERIGERGRVLDKFAPQPRILNHPSTGGFISHCGWNSAMESIDFGVPIIAMPIHNDQPINAKLMVELGVAVEIVRDDDGKIHRGEIAETLKSVVTGETGEILRAKVREISKNLKSIRDEEMDAVAEELIQLCRNSNKSK
Question: Which “LC-MS, peak area ratio (%) Reb D” value [1] does the source give for B1 here?
Answer: The value was 6.73%.

Question: And the “LC-MS, peak area ratio (%) Reb E” value [1]?
Answer: The value was 52.88%.

Question: And the “LC-MS, peak area ratio (%) Rub” value [1]?
Answer: The value was 3.54%.

Question: What about the “LC-MS, peak area ratio (%) Stev” value [1] of the same molecule?
Answer: The value was 2.12%.

Question: What about the “LC-MS, peak area ratio (%) Unknown peak #1 (MW804) RT 30.70 min” value [1] of the same molecule?
Answer: Its value is 12.02%.

Question: And the “LC-MS, peak area ratio (%) Unknown peak #2 (MW804) RT 49.50 min” value [1]?
Answer: Its value is 9.94%.

Question: And the “LC-MS, peak area ratio (%) Unknown peak #3 (MW804) RT 50.40 min” value [1]?
Answer: The value was 12.77%.

Question: What about the “Rubusoside conv. (reactiontime)” value [2] of the same molecule?
Answer: The value was 80% (2 h.).

Question: What about the “LC-MS, peak area ratio (%) Reb D” value [3] of the same molecule?
Answer: The value was 1.70%.

Question: What about the “LC-MS, peak area ratio (%) Reb E” value [3] of the same molecule?
Answer: Its value is 42.56%.

Question: And the “LC-MS, peak area ratio (%) Stev” value [3]?
Answer: Its value is 20.01%.

Question: What about the “LC-MS, peak area ratio (%) Unknown peak #1 (MW966) RT = 22.60 min” value [3] of the same molecule?
Answer: Its value is 4.48%.

Question: What about the “LC-MS, peak area ratio (%) Unknown peak #2 (MW966) RT = 26.50 min” value [3] of the same molecule?
Answer: The value was 5.56%.

Question: And the “LC-MS, peak area ratio (%) Unknown peak #3 (MW966) RT = 29.50 min” value [3]?
Answer: Its value is 25.70%.
